Patent publication US20180100178A1 (CORNELL UNIVERSITY, published 2018)
Numbering of substitutions follows the chain as printed. Numbers in names are those of the source.

B1: wild-type recombinant mouse glutaminase C (GAC), residues 73-603, unlabeled (enzyme)
chain: SSSPSEILQELGKGGTPPQQQQQQQQQPGASPPAAPGPKDSPGETDAFGNSEGKEMVAAGDNKIKQGLLPSLEDLLFYTIAEGQEKIPVHKFITALKSTGLRTSDPRLKECMDMLRLTLQTTSDGVMLDKDLFKKCVQSNIVLLTQAFRRKFVIPDFMSFTSHIDELYESAKKQSGGKVADYIPQLAKFSPDLWGVSVCTVDGQRHSIGDTKVPFCLQSCVKPLKYAIAVNDLGTEYVHRYVGKEPSGLRFNKLFLNEDDKPHNPMVNAGAIVVTSLIKQGVNNAEKFDYVMQFLNKMAGNEYVGFSNATFQSERESGDRNFAIGYYLKEKKCFPEGTDMVGILDFYFQLCSIEVTCESASVMAATLANGGFCPITGERVLSPEAVRNTLSLMHSCGMYDFSGQFAFHVGLPAKSGVAGGILLVVPNVMGMMCWSPPLDKMGNSVKGIHFCHDLVSLCNFHNYDNLRHFAKKLDPRREGGDQRHSFGPLDYESLQQELALKDTVWKKVSPESSDDTSTTVVYRMESLGERS
notes: one subunit is described; also called WT GAC; unlabeled GAC; not shown: N-terminal His tag and thrombin cleavage site from pET28a
B2: mouse GAC F327W,D391K double mutant (residues 73-603) (enzyme)
chain: B1 chain with F255W, D319K
notes: Found as a dimer by SEC-MALS; also called GAC double mutant; dimeric GACF327W,D391K double mutant; not shown: N-terminal His tag and thrombin cleavage site from pET28a
B3: Alexa Fluor 488-labeled recombinant mouse GAC (FRET donor) (enzyme)
chain: B1 chain
modifications: labeled with Alexa Fluor 488 succinimidyl ester (sites not given)
notes: not shown: N-terminal His tag and thrombin cleavage site from pET28a
B4: mouse GAC F327W mutant (residues 73-603) (enzyme)
chain: B1 chain with F255W
notes: as for B3
B5: QSY9-labeled recombinant mouse GAC (FRET acceptor) (enzyme)
chain: B1 chain
modifications: labeled with QSY9 succinimidyl ester (sites not given)
notes: also called QSY9-GAC; QSY9-labeled GAC; not shown: N-terminal His tag and thrombin cleavage site from pET28a

Assays:
[1] = molecular target: B5; test: FRET, exchange with excess unlabeled GAC
[2] = molecular target: the molecule itself; test: SEC-MALS of 5 mg/ml protein, self-association (dimer/tetramer), without and after preincubation with BPTES; MW on a log axis [panel C]
Source text: (§1) LS=light scattering; MW=molecular weight. […] Points represent the mean and error bars the standard deviation of three independent experiments.

[3] = molecular target: B3; test: FRET exchange (competition): excess unlabeled GAC added to preformed 488-labeled GAC / QSY9-GAC complexes; displaced competitor is QSY9-GAC; with or without 100 mM phosphate or sulfate [panel A]
[4] = molecular target: the molecule itself; test: SEC-MALS of 5 mg/ml protein, self-association, without and after preincubation with BPTES; MW on a log axis [panel B]
Source text: LS=light scattering; MW=molecular weight.

[5] = molecular target: B5; test: FRET, self-association of labeled GAC in solution
[6] = molecular target: the molecule itself; test: SEC-MALS of 5 mg/ml protein, self-association (dimer/tetramer), without and after preincubation with BPTES; MW on a log axis [panel D]
Source text: as §1

[7] = molecular target: B3; test: FRET time trace: 25 nM 488-labeled GAC (donor) + 75 nM QSY9-GAC (acceptor); 100 mM phosphate, sulfate or water added at 10 min [panel A]

## B1
other
  Specific activity of WT GAC without phosphate (mol Glu/min mol GAC), against [GAC]: specific activity (triangles, left axis) rises with [GAC] from about 90 at about 85 nM through about 400 at about 430 nM to about 500 at about 1000-1500 nM, flattening; no lower plateau inside the range (linear axis)
[1]
  binding result: binds
[2]
  binding result: binds
[3]
  binding result: binds

## B2
[4]
  binding result: binds

## B3
[5]
  binding result: binds

## B4
[6]
  binding result: binds

## B5
[7]
  binding result: binds
